Test results taken from patent US20260184766A1 (priority 2022, published 2026).

Assays:
[1] = tested on: SARS CoV-2 "South African" B.1.351 variant Spike protein
[2] = tested on: pseudotyped virus carrying B.1.351 or "SA" variant (beta lineage) spike; type: cell-based, SARS-CoV-2; conditions: read-out: Virus Neutralization Pseudovirus (nM) Beta

DYTCPDGYEHTCGCIGGCGCKRSACIGALCCQASLGGWLSDMP [G3-C]
stability conferred to the knob sequence by N- and C-terminal residues, in words [1]: improved stability

GMTCPDGYEHTCGCIGGCGCKRSACIGALCCQASLGGWLSDRS [G3-Z]
stability conferred to the knob sequence by N- and C-terminal residues, in words [1]: improved stability

HWTCPDGYEHTCGCIGGCGCKRSACIGALCCQASLGGWLSDSF [2G3 knob HWSF]
EC50 [2]: 7.82 ± 1.59 nM
stability conferred to the knob sequence by N- and C-terminal residues, in words [1]: improved stability

ISTCPDGYEHTCGCIGGCGCKRSACIGALCCQASLGGWLSDTV [2G3 knob ISTV]
EC50 [2]: 20.9 ± 7.95 nM
stability conferred to the knob sequence by N- and C-terminal residues, in words [1]: improved stability

LVTCPDGYEHTCGCIGGCGCKRSACIGALCCQASLGGWLSDIP [G3-G]
stability conferred to the knob sequence by N- and C-terminal residues, in words [1]: improved stability

SVTCPDGYEHTCGCIGGCGCKRSACIGALCCQASLGGWLSDYI [G3-E]
stability conferred to the knob sequence by N- and C-terminal residues, in words [1]: improved stability

TCPDGYEHTCGCIGGCGCKRSACIGALCCQASLGGWLSD [2G3 Knob]
EC50 [2]: 15.7 ± 2.61 nM
